From article doi:10.1101/808618 (bioRxiv, 2020)
Where a chain is given by its changes, count along the chain named. Names may count otherwise.

B1: Plasmodium falciparum GMP synthetase wildtype (enzyme)
chain: MEGEEYDKILVLNFGSQYFHLIVKRLNNIKIFSETKDYGVELKDIKDMNIKGVILSGGPYSVTEAGSPHLKKEVFEYFLEKKIPIFGICYGMQEIAVQMNGEVKKSKTSEYGCTDVNILRNDNINNITYCRNFGDSSSAMDLYSNYKLMNETCCLFENIKSDITTVWMNHNDEVTKIPENFYLVSSSENCLICSIYNKEYNIYGVQYHPEVYESLDGELMFYNFAYNICKCKKQFDPIRYHELELKNIEKYKHDHYVIAAMSGGIDSTVAAAYTHKIFKERFFGIFIDNGLLRKNEAENVYTFLKSTFPDMNITKIDASENFLSNLQGVTDPEQKRKIIGKLFIEEFEKAVNNIDIDINKTFLLQGTLYPDIIESKCSKNLSDTIKTHHNVGGLPKNLKFKLFEPFKYLFKDDVKTLSRELNLPEEITNRHPFPGPGLAIRVIGEINKHKLNILREVDDIFINDLKQYGLYNQISQAFAVLLSSKSVGVRGDARSYDYVCVLRAVKTSSFMTANWYQIPYDILDKITTRILSEVKGVNRILYDVSSKPPATIEFE
B2: PfGMPS E553L (enzyme, Plasmodium falciparum)
chain: B1 chain with E553L
B3: PfGMPS K547L (enzyme, Plasmodium falciparum)
chain: B1 chain with K547L
B4: PfGMPS_D412A (enzyme, Plasmodium falciparum)
chain: B1 chain with D412A
B5: PfGMPS_E213A (enzyme, Plasmodium falciparum)
chain: B1 chain with E213A
B6: PfGMPS K376L (enzyme, Plasmodium falciparum)
chain: B1 chain with K376L
B7: PfGMPS_E555L (enzyme, Plasmodium falciparum)
chain: B1 chain with E555L
B8: PfGMPS R25L (enzyme, Plasmodium falciparum)
chain: B1 chain with R25L
B9: PfGMPS_N390A (enzyme, Plasmodium falciparum)
chain: B1 chain with N390A
B10: PfGMPS K160L (enzyme, Plasmodium falciparum)
chain: B1 chain with K160L
B11: PfGMPS_H388A (enzyme, Plasmodium falciparum)
chain: B1 chain with H388A
B12: PfGMPS_T387A (enzyme, Plasmodium falciparum)
chain: B1 chain with T387A
B13: PfGMPS_K415L (enzyme, Plasmodium falciparum)
chain: B1 chain with K415L
B14: PfGMPS_K24L (enzyme, Plasmodium falciparum)
chain: B1 chain with K24L
B15: PfGMPS D413A (enzyme, Plasmodium falciparum)
chain: B1 chain with D413A
B16: PfGMPS_K411L (enzyme, Plasmodium falciparum)
chain: B1 chain with K411L
B17: PfGMPS H389A (enzyme, Plasmodium falciparum)
chain: B1 chain with H389A
B18: PfGMPS R539L (enzyme, Plasmodium falciparum)
chain: B1 chain with R539L
B19: PfGMPS_K386L (enzyme, Plasmodium falciparum)
chain: B1 chain with K386L

Biological target: the molecule itself
Test: SEC

Protein	binding result
B1	binds
B2	binds
B3	binds
B4	binds
B5	binds
B6	binds
B7	binds
B8	binds
B9	binds
B10	binds
B11	binds
B12	binds
B13	binds
B14	binds
B15	binds
B16	binds
B17	binds
B18	binds
B19	binds
